{"source": "patent US12102696B2", "about": "“Radiolabeling and formulation for scale up of 64Cu-DOTATATE” (Curium US LLC, priority 2020, dated 2024)", "key": {"[1]": {"assay": "Stability (RCP by radio-HPLC) of purified scale-up 64Cu-DOTATATE reactions", "format": "physicochemical", "settings": "for RCP: Sep-Pak purified material", "method": "(§1) HPLC was performed using an Agilent 1200 series system equipped with a variable wavelength UV-Vis detector followed in-line with a sodium iodide detector (Bioscan B-FC-200P). A Phenomenex Luna C18 column (150 mm×.4.6 mm, 5 μm) was used. The mobile phase was made of Solvent A and Solvent B. Solvent A was a 0.1% trifluoroacetic acid (TFA) in HRW, and solvent B was 0.1% TFA acid in acetonitrile (ACN). The gradient was (i) 15-40% Solvent B in A for 10 min, 40% Solvent B in A from 10 to 15 min, 15% Solvent B in A from 15-16 min, and 15% Solvent B in Solvent A from 16-19 min. The flow rate was 1.2 mL/min, and UV detection was monitored at 220 nm.\nRadiolabeling reactions followed the general procedure described herein. A solution of ^64Cu in 0.05 M HCl was mixed with a solution of DOTATATE in sodium acetate/gentisic acid buffer. The reaction mixture was heated to 30° C. for 5 min and then purified via a C-18 solid phase extraction cartridge. The purified ^64Cu-DOTATATE was collected in 2 mL of 50% EtOH and subsequently diluted with an ascorbic acid solution. The final product was assayed for activity and the radiochemical purity (RCP) was evaluated via radio-HPLC analysis. Characterization was performed against non-radioactive DOTATATE (tR=6.3 min) and Cu-DOTATATE (tR=7.3 min) standards.\nRepresentative reactions for 100 mCi-7000 mCi batch sizes and results are outlined in Table 9. […] The remainder of the activity eluted (tR=6.2-7.2 min) are attributed to degradation products due to radiolysis."}, "[2]": {"assay": "Stability of 64Cu-DOTATATE in final dose matrix (NaOAsc, EtOH, GA) by HPLC", "format": "physicochemical", "method": "as §1\nThe effect of ethanol (EtOH) and gentisic acid (GA) content in the final dose matrix on chemical stability of ^64Cu-dotatate was assessed. In these experiments, 500 mCi reactions were performed using the general procedure outlined in Example 2 and the ^64Cu-DOTATATE product was eluted from the Sep-Pak with 2 mL of 50% EtOH (aq) into 5 mL of 50 mg/mL NaOAsc buffer to serve as the purified ^64Cu-DOTATATE stock solution. From the ^64Cu-DOTATATE stock, 1 mL aliquots were transferred to vials containing the following solutions:\nIn those samples, the decrease in ^64Cu-DOTATATE correlated with an increase in free ^64Cu and two unknown radioimpurities at tR=6.6 min and 7.1 min."}, "[3]": {"target": "somatostatin receptors, subtype 2 receptors (SSTR2) (Homo sapiens, UniProt P30874)", "sequence (P30874 whole entry)": "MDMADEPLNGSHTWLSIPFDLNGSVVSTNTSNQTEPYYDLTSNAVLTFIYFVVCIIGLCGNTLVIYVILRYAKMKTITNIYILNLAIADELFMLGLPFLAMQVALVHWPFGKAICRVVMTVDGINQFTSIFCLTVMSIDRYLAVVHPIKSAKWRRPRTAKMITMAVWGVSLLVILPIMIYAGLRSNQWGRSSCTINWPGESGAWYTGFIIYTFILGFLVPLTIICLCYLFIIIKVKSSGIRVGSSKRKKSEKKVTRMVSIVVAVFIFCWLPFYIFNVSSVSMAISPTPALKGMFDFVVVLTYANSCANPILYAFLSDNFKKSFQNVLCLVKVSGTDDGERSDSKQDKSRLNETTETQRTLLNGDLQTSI", "settings": "cited from earlier work"}, "[4]": {"settings": "reaction 120.6 mCi 64Cu at TOS, 200 μg DOTATATE"}, "[5]": {"settings": "reaction 481 mCi 64Cu at TOS, 1000 μg DOTATATE, average of two samples"}, "[6]": {"settings": "reaction 1190 mCi 64Cu at TOS, 2000 μg DOTATATE, average of two samples"}, "[7]": {"settings": "reaction 2402 mCi 64Cu at TOS, 4000 μg DOTATATE, average of two samples"}, "[8]": {"settings": "reaction 7297 mCi 64Cu at TOS, 4378 μg DOTATATE"}}, "note": "Marks after values point to notes of the source that are not given here.", "data": [{"smiles": "C[C@@H](O)[C@H](NC(=O)[C@@H]1CSSC[C@H](NC(=O)[C@@H](Cc2ccccc2)NC(=O)CN2CCN3CCN(CC(=O)O)CCN(CC2)CC(=O)[O][64Cu][O]C(=O)C3)C(=O)N[C@@H](Cc2ccc(O)cc2)C(=O)N[C@H](Cc2c[nH]c3ccccc23)C(=O)N[C@@H](CCCCN)C(=O)N[C@@H]([C@@H](C)O)C(=O)N1)C(=O)O", "note": "[^64Cu-DOTATATE, copper (Cu64)-N-[(4,7,10-Tricarboxymethyl-1,4,7,10-tetraazacyclododec-1-yl)acetyl]-Dphenylalanyl-L-cysteinyl-L-tyrosyl-D-tryptophanyl-L-lysyl-L-threoninyl-L-cysteinyl-L-threonine-cyclic (2-7) disulfide]", "values": [{"measurement": "period over which stable (HPLC)", "setting": "[1]; purified reaction solutions", "value": "at least 47 h"}, {"measurement": "RCP Day 1 (+24 hr)", "setting": "[1]; [4]", "value": 97.7, "unit": "%^"}, {"measurement": "RCP Day 2 (+47 hr)", "setting": "[1]; [4]", "value": 95.0, "unit": "%^"}, {"measurement": "RCP", "setting": "[1]; [4]", "value": 98.9, "unit": "%^"}, {"measurement": "RCP", "setting": "[1]; [5]", "value": 99.4, "unit": "%^c"}, {"measurement": "RCP Day 1 (+24 hr)", "setting": "[1]; [5]", "value": 99.7, "unit": "%^c"}, {"measurement": "RCP Day 2 (+47 hr)", "setting": "[1]; [5]", "value": 99.4, "unit": "%^c"}, {"measurement": "RCP", "setting": "[1]; [6]", "value": 99.6, "unit": "%^c"}, {"measurement": "RCP Day 1 (+24 hr)", "setting": "[1]; [6]", "value": 99.4, "unit": "%^c"}, {"measurement": "RCP Day 2 (+47 hr)", "setting": "[1]; [6]", "value": 99.7, "unit": "%^c"}, {"measurement": "RCP", "setting": "[1]; [7]", "value": 99.2, "unit": "%^c"}, {"measurement": "RCP Day 1 (+24 hr)", "setting": "[1]; [7]", "value": 99.4, "unit": "%^c"}, {"measurement": "RCP Day 2 (+47 hr)", "setting": "[1]; [7]", "value": 99.3, "unit": "%^c"}, {"measurement": "RCP Day 2 (+47 hr)", "setting": "[1]; [8]", "value": 95, "unit": "%"}, {"measurement": "RCP", "setting": "[1]; [8]", "value": 95, "unit": "%"}, {"measurement": "purity, chemically stable for two days", "setting": "[2]; sodium ascorbate 45-122 mg/mL, ethanol 1.6%-5.2%, activity concentration 3.6-16 mCi/mL at time of preparation", "value": "greater than 95%"}, {"measurement": "purity, remained stable", "setting": "[2]; sodium ascorbate up to 98 mg/mL, ethanol up to 9.7%, activity concentration approximately 18 mCi/mL at time of preparation", "value": "greater than 90%"}, {"measurement": "affinity for somatostatin receptor subtypes", "setting": "[3]", "value": "highest affinity for subtype 2 receptors (SSTR2)"}]}]}
